According to PMC6405930, “Conservation of the Amyloid Interactome Across Diverse Fibrillar Structures” (Scientific Reports, 2019):

B1: SPARC-like protein 1: CSF protein bound to fibrils (protein, UniProt Q14515 17-664, looked up)
SPARC-like protein 1: IPTNARLLSDHSKPTAETVAPDNTAIPSLRAEAEENEKETAVSTEDDSHHKAEKSSVLKSKEESHEQSAEQGKSSSQELGLKDQEDSDGHLSVNLEYAPTEGTLDIKEDMSEPQEKKLSENTDFLAPGVSSFTDSNQQESITKREENQEQPRNYSHHQLNRSSKHSQGLRDQGNQEQDPNISNGEEEEEKEPGEVGTHNDNQERKTELPREHANSKQEEDNTQSDDILEESDQPTQVSKMQEDEFDQGNQEQEDNSNAEMEEENASNVNKHIQETEWQSQEGKTGLEAISNHKETEEKTVSEALLMEPTDDGNTTPRNHGVDDDGDDDGDDGGTDGPRHSASDDYFIPSQAFLEAERAQSIAYHLKIEEQREKVHENENIGTTEPGEHQEAKKAENSSNEEETSSEGNMRVHAVDSCMSFQCKRGHICKADQQGKPHCVCQDPVTCPPTKPLDQVCGTDNQTYASSCHLFATKCRLEGTKKGHQLQLDYFGACKSIPTCTDFEVIQFPLRMRDWLKNILMQLYEANSEHAGYLNEKQRNKVKKIYLDEKRLLAGDHPIDLLLRDFKKNYHMYVYPVHWQFSELDQHPMDRVLTHSELAPLRASLVPMEHCITRFFEECDPNKDKHITLKEWGHCFGIKEEDIDENLLF
B2: EGF-containing fibulin-like extracellular matrix protein 1: CSF protein bound to fibrils (protein, UniProt Q12805 18-493, looked up)
EGF-containing fibulin-like …: QDTEETITYTQCTDGYEWDPVRQQCKDIDECDIVPDACKGGMKCVNHYGGYLCLPKTAQIIVNNEQPQQETQPAEGTSGATTGVVAASSMATSGVLPGGGFVASAAAVAGPEMQTGRNNFVIRRNPADPQRIPSNPSHRIQCAAGYEQSEHNVCQDIDECTAGTHNCRADQVCINLRGSFACQCPPGYQKRGEQCVDIDECTIPPYCHQRCVNTPGSFYCQCSPGFQLAANNYTCVDINECDASNQCAQQCYNILGSFICQCNQGYELSSDRLNCEDIDECRTSSYLCQYQCVNEPGKFSCMCPQGYQVVRSRTCQDINECETTNECREDEMCWNYHGGFRCYPRNPCQDPYILTPENRCVCPVSNAMCRELPQSIVYKYMSIRSDRSVPSDIFQIQATTIYANTINTFRIKSGNENGEFYLRQTSPVSAMLVLVKSLSGPREHIVDLEMLTVSSIGTFRTSSVLRLTIIVGPFSF
B3: Mimecan: CSF protein bound to fibrils (protein, UniProt P20774 21-298, looked up)
Mimecan: PPTQQDSRIIYDYGTDNFEESIFSQDYEDKYLDGKNIKEKETVIIPNEKSLQLQKDEAITPLPPKKENDEMPTCLLCVCLSGSVYCEEVDIDAVPPLPKESAYLYARFNKIKKLTAKDFADIPNLRRLDFTGNLIEDIEDGTFSKLSLLEELSLAENQLLKLPVLPPKLTLFNAKYNKIKSRGIKANAFKKLNNLTFLYLDHNALESVPLNLPESLRVIHLQFNNIASITDDTFCKANDTSYIRDRIEEIRLEGNPIVLGKHPNSFICLKRLPIGSYF
B4: Vitamin D-binding protein: CSF protein bound to fibrils (protein, UniProt P02774 17-474, looked up)
Vitamin D-binding protein: LERGRDYEKNKVCKEFSHLGKEDFTSLSLVLYSRKFPSGTFEQVSQLVKEVVSLTEACCAEGADPDCYDTRTSALSAKSCESNSPFPVHPGTAECCTKEGLERKLCMAALKHQPQEFPTYVEPTNDEICEAFRKDPKEYANQFMWEYSTNYGQAPLSLLVSYTKSYLSMVGSCCTSASPTVCFLKERLQLKHLSLLTTLSNRVCSQYAAYGEKKSRLSNLIKLAQKVPTADLEDVLPLAEDITNILSKCCESASEDCMAKELPEHTVKLCDNLSTKNSKFEDCCQEKTAMDVFVCTYFMPAAQLPELPDVELPTNKDVCDPGNTKVMDKYTFELSRRTHLPEVFLSKVLEPTLKSLGECCDVEDSTTCFNAKGPLLKKELSSFIDKGQELCADYSENTFTEYKKKLAERLKAKLPDATPTELAKLVNKHSDFASNCCSINSPPLYCDSEIDAELKNIL

Columns and labels:
Test in all cases: Fibril incubation with CSF, quantitative MS/MS of bound proteins
Ab2 fibrils = system: T1, Ab2 fibrils; format: binding, human; details: 4:1 w/w CSF protein:fibril
T1 construct: Two structurally distinct fibrils of the Aβ(1–40) peptide associated with AD
Procedure: (§1) Plasma and CSF solutions were centrifuged (40,000 g, 20 min) to remove any aggregates. The protein concentration was determined using 280 nm absorbance assuming 1 Abs = 1 mg/mL. […] Control samples (without fibril material) were prepared similarly. All samples were incubated at room temperature for one hour under gentle agitation. Fibrils and fibril-bound proteins were pelleted by centrifugation at 17,000 g for 30 minutes. The supernatant (175 μL) was removed and the aggregate was re-suspended in 175 μL PBS and pelleted again before further preparation for gel analysis and spin-filter assisted digest for quantitative MS/MS.
(§2) The fibril-protein pellets were transferred to spin-filters (0.22 μm), washed twice in PBS (100 μL) and once in 1 M NaCl (100 μL). The fibrils and fibril-bound proteins were dissolved by one-hour incubation in 100 μL 6 M guanidinium chloride followed by elution from the spin-filter. The eluted proteins were loaded onto a 3 kDa MWCO filter unit for filter-assisted unfolding, reduction, alkylation, and trypsin digestion. In brief, samples were washed twice in 8 M urea, once in 8 M urea with 50 mM DTT, once in 8 M urea with 50 mM iodoaceteamide, and twice in 8 M Urea. The filter units were dried by centrifugation (14,000 g in 30 minutes) after every addition. Trypsin digestion was carried out with 0.25 μg sequencing grade trypsin from Sigma Aldrich in 50 mM ammonium bicarbonate overnight at 37 °C. The tryptic peptides were collected by centrifugation, acidified with TFA (0.1%) and micro-purified using POROS R2 column material (Applied Biosystems) packed in P200 pipette tips (Sarstedt).
(§3) LC-MS/MS analyses were performed on an EASY-nLC II system (Thermo Fisher Scientific) connected to a TripleTOF 5600+ mass spectrometer (Sciex) equipped with a NanoSpray III source (Sciex) and operated under Analyst TF 1.6.0 control.
(§4) The micro-purified tryptic peptides were dissolved in 0.1% formic acid, injected and trapped on an in-house packed trap column (2 cm × 100 μm I.D) with RP ReproSil-Pur C18-AQ 3 μm resin (Dr. Maisch GmbH). Peptides were eluted from the trap column and separated on a 15 cm analytical column (75 μm i.d.) packed in-house in a pulled emitter with RP ReproSil-Pur C18-AQ 3 μm resin (Dr. Maisch GmbH). Elution from the analytical column was performed with a linear gradient from 5% to 35% phase B (90% acetonitrile with 0.1% formic acid) over 20 min for protein identification and 50 min for quantitative analysis, respectively.
(§5) All samples were analysed three times, yielding nine MS/MS experiments for each fibril for both plasma and CSF. For the area-based extracted ion chromatogram (XIC) quantification, the acquisition method was set up as an information-dependent acquisition (IDA) experiment collecting up to 25 MS/MS spectra in each 1.6 sec cycle using an exclusion window of 6 sec.
(§6) XIC quantification was based on the average ion intensity of the three most abundant peptides for each protein. Only proteins quantified in at least four out of nine MS/MS experiments per fibril were included in the quantification. The total ion scores were visualized after grouping the proteins according to function (Figure S11).
(§7) For each MS/MS experiment, the ion intensities of the individual proteins were normalized to the total ion intensity of that MS/MS experiment to achieve a relative protein composition. The contribution of each protein was averaged over all nine MS/MS experiments (Tables 1 and 2).

Ab1 fibrils = system: T2, Ab1 fibrils; format: binding, human; details: 4:1 w/w CSF protein:fibril
T2 construct: Synthetic amyloid β peptide 1–40 was purchased from Caslo Aps (Lyngby, Denmark); purchased Caslo Aps (Lyngby, Denmark); host or cells: synthetic peptide
Procedure: as §1, §2, §3, §4, §5, §6, §7

αSN fibrils = αSN fibrils (Homo sapiens, UniProt P37840); format: binding; set-up: key to Identification status of CSF protein bound: αSN: *: Identified, but not quantified; —: Not identified in any of the samples; details: for Identification status of CSF protein bound: αSN: symbol cells
Procedure: as §1, §2, §3, §4, §5, §6, §7

glucagon fibrils = molecular target: T3, glucagon fibrils (Homo sapiens, UniProt P01275); format: binding; details: 4:1 w/w CSF protein:fibril
T3 construct: fibrils of the peptide hormone glucagon
Procedure: as §1, §2, §3, §4, §5, §6, §7

C-36 fibrils = molecular target: T4, C-36 fibrils (Homo sapiens, UniProt P01009); format: binding; details: 4:1 w/w CSF protein:fibril
T4 construct: the 36 residue C-terminal fragment of α1-antitrypsin (C-36)
Procedure: as §1, §2, §3, §4, §5, §6, §7

FAS4-AD aggregates = system: T5, FAS4-AD aggregates; format: binding, human; set-up: key to Identification status of CSF protein bound: FAS4-AD: *: Identified, but not quantified; —: Not identified in any of the samples; details: symbol cells
T5 construct: aggregates of a mutated version of the FAS1-4 domain of TGFBIp
Procedure: as §1, §2, §3, §4, §5, §6, §7

T3 sequence (P01275 53-81 limits assumed): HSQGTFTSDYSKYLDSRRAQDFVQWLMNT
T4 sequence (P01009 383-418 limits assumed): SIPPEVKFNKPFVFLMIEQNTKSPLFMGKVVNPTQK

Molecule	Relative composition of CSF proteins bound: Ab2 (Ab2 fibrils)	Relative composition of CSF proteins bound: Ab1 (Ab1 fibrils)	Identification status of CSF protein bound: αSN (αSN fibrils)	Relative composition of CSF proteins bound: Glucagon (glucagon fibrils)	Relative composition of CSF proteins bound: C-36 (C-36 fibrils)	Identification status of CSF protein bound: FAS4-AD (FAS4-AD aggregates)	Relative composition of CSF proteins bound: αSN (αSN fibrils; 4:1 w/w CSF protein:fibril)
B1	1.4 ± 0.0 % of total protein	1.2 ± 0.1 % of total protein	*	0.4 ± 0.1 % of total protein	0.8 ± 0.4 % of total protein	—	
B2	1.0 ± 0.3 % of total protein	0.6 ± 0.2 % of total protein	*	0.2 ± 0.1 % of total protein	0.7 ± 0.1 % of total protein	—	
B3	0.6 ± 0.2 % of total protein	0.5 ± 0.0 % of total protein		0.2 ± 0.1 % of total protein	0.4 ± 0.1 % of total protein	*	2.1 ± 0.9 % of total protein
B4	1.1 ± 0.0 % of total protein	0.7 ± 0.0 % of total protein	—	0.8 ± 0.1 % of total protein	1.4 ± 0.8 % of total protein	—	
